In the RNAGym collection of RNA variant scans (doi:10.1073/pnas.2313332121):
This sample holds only a part of the variants without activity.

B1: TPR 5TU (parent)
chain: GGAUCUUCUCGAUCUAACAAAAAAGACAAAUCUGCCACAAAGCUUGAGAGCAUCUUCGGAUGCAGAGGCGGCAGCCUUCGGUGGCGCGAUAGCGCCAACGUUCUCAACUAUGACACGCAAAACGCGUGCUCCGUUGAAUGGAGUUUAUCAUG

Variants of: B1
Test: polymerase ribozyme fitness, log enrichment relative to wild type (log ratio); higher = more active; in vitro selection for triplet polymerase activity
How it was run: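 To select mutant libraries of each subunit of a heterodimeric triplet polymerase ribozyme, built by PCR and transcribed, each was annealed with a biotinylated primer, partner subunit and triplets, then incubated frozen at −7 °C. Extended constructs were gel-excised, captured on streptavidin beads and amplified by RT-PCR, in one round carried out in triplicate. Illumina sequencing of input and output libraries kept genotypes with ≥10 input reads and ≥1 read per output. Fitness is the base-2 logarithm of genotype enrichment relative to wild-type enrichment, from inverse-variance-weighted replicate averages.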

| Variant | polymerase ribozyme fitness (log ratio) |
| --- | --- |
| A47U G124A | 0.304 |
| A52C G94A | -0.384 |
| A30G C87U U101A U109C A115U A120U A122U U145G G152A | ≤ -4.2 |
| C93U A142C | -0.842 |
| A29C C51G C57G G92C A107C A110C G124A U145A U151G | ≤ -4.2 |
| C96A G126A U139G U151C | ≤ -4.2 |
| A41C G48C C57U G84A | -2 |
| U4A A28U C93U A97U C105G G126A G136U | ≤ -4.2 |
| C85U U101G C105A U109G A110G | -4.19 |
| G50U C93U | -2.05 |
| C75G U77A A91G A106U U134G | ≤ -4.2 |
| A29C U44A A52U G58A C118A | ≤ -4.2 |
| A3G C38A G124C U134G G136U U146G | ≤ -4.2 |
| C57G G83C C85U A119G | -1.44 |
| A47G A52C A73G C76G C87G A98G | ≤ -4.2 |
| G46U C69G | -0.758 |
| G58C G83C G117C C131U | -0.976 |
| C8U G59A C116U | -3.27 |
| C51A G74A C85A C114A | ≤ -4.2 |
| A37G C96A U102A C131U G136U | ≤ -4.2 |
| C10A U13C A30C G83A G88A A98U C125A A147G | ≤ -4.2 |

| Variant | polymerase ribozyme fitness (log ratio) |
| --- | --- |
| C35U A49G A97G A119C | -2.09 |
| G71U G92U G136A | -2.26 |
| U6A U146G A150G G152A | -1.38 |
| A39U U55G G88A U104A U135A U144C C149A | ≤ -4.2 |
| A37C A52U C96A | -2.87 |
| C54U C93G | -3.72 |
| U55A U144C | 0.176 |
| C93U A119G G143U U145G | -3.92 |
| U4A A20U G50C U55A A73G G84A G88C C132U U135A | ≤ -4.2 |
| C57A G65A U82G | -0.673 |
| A24G A26C A29C C79A C93U A115G G117A U144C A150C | ≤ -4.2 |
| C51G A73G C79G C87G G140C U144A | ≤ -4.2 |
| G58C C63U U102G A106U G126A C132A | ≤ -4.2 |
| A3U U56C C87U A89G U101G | -2.52 |
| G59A G92U C114A A119U | -3.59 |
| C96A C103G | -2.53 |
| C32U C36A U55A U77G A91U G140U | -3.95 |
| A12U C85U | -0.742 |
| A66C G92C C96G A120G | -4.14 |
| A41U A52G U55A C69A G86U | -3.96 |
| C72U C87U U101G G124C | -1.6 |

| Variant | polymerase ribozyme fitness (log ratio) |
| --- | --- |
| A47G U90A C95A A98G A138U A147C | ≤ -4.2 |
| G58C A91C C125G | ≤ -4.2 |
| G46A U135G | -3.27 |
| A21G A47C C51U C87U U90G | ≤ -4.2 |
| A16U U31A C38G A41C G62C A120U A142G A147U | ≤ -4.2 |
| A37C C95A A97C A121U | -2.71 |
| U55A C76U C93U C95U G143A | -2.72 |
| A16G A37U A60U G71C G84A C116A G124C U146G | ≤ -4.2 |
| A22G A40C U139G | 0.649 |
| C32G C87G U104G A110G A150U | ≤ -4.2 |
| C8G G34U A73C C85G U148G | ≤ -4.2 |
| C18A U31G G84C A89U | -2.91 |
| U53A C95A C125U | -1.7 |
| G11A U15G A17C A20U U33C A64G C93G A110G A147U | ≤ -4.2 |
| C105U A119U G140A U146G | -3.72 |
| A113U U146C | -1.49 |
| A21U C43A U78G G84U C93U C103G A115G | ≤ -4.2 |
| C14A G83A | -0.809 |
| C8G C43U G88C C93A U146G | ≤ -4.2 |
| A21G C96U | 0.682 |
| A39C U53A G86C C105A A119U | ≤ -4.2 |

| Variant | polymerase ribozyme fitness (log ratio) |
| --- | --- |
| G50A G59U G71U A73C C95A C108G | ≤ -4.2 |
| A17G C57U A113C | -3.96 |
| A3U G84U | -2.4 |
| A49U G141A A147G | ≤ -4.2 |
| A16U A24U C27U A39U U55A C76A | ≤ -4.2 |
| U45A C75U U90A C93U A119U G141C | ≤ -4.2 |
| U6G A28G G58U C85U | ≤ -4.2 |
| C103G A120U | -1.5 |
| A24U A73U C87A A89U | ≤ -4.2 |
| C35G G84A C93G U101G | ≤ -4.2 |
| A52C C87A G92C G141A | ≤ -4.2 |
| U15G G42A C75A G83U A122U G128A | ≤ -4.2 |
| C72U | -0.00972 |
| A30G C51U G68C A121G U127C | ≤ -4.2 |
| A23U G58C G88U G136A | ≤ -4.2 |
| C35G A39C U82C C116U C125G G133A | ≤ -4.2 |
| A20C C85U G86U C93A A119U A121G | -1.77 |
| C63U U139G | 0.261 |
| U6A C35A C63U C69U C76A G83C | ≤ -4.2 |
| A26C C38U C69A U77G G88U | ≤ -4.2 |
| A21C G25A | -2.85 |
